Test results taken from patent US5840530.

Legend:
[1] = target: recombinant human IL-12 beta1 receptor protein (human); assay: equilibrium binding of 125I-labeled IL-12 to transfected COS cells, Scatchard analysis, single site model
[2] = target: recombinant human IL-12 beta2 receptor protein expressed from the B5-10 plasmid on COS cells (human); assay: as above

- Kd [1]: 2 to 5 nM
- Kd [2]: 2 to 5 nM
Substance: recombinant human IL-12 (Interleukin-12) (from UniProt P29460) (ligand)
